In publication PMC12464271 one finds stoichiometry N data, which are given here for one substance.

For this assay, the target named is HPV-16 L1 capsid protein lacking the first twenty-nine N-terminal amino acids after the start codon (Human papillomavirus type 16) (UniProt P03101). As to the kind of experiment: SEC + other: negative-stain TEM; purified L1 in phosphate buffer pH 7.5 with the reducing agent DTT (20 mM); aggregates disassembled into soluble pentamers.

On to “HPV-16 L1 capsid protein lacking the first twenty-nine N-terminal amino acids after the start codon (from UniProt P03101 1-505) (natural protein)”, for which the stoichiometry N amounted to 5.

By stoichiometry N is commonly meant a count of units in the complex or per binding partner.
